Assays:
[1] = Thermal stability by circular dichroism; assay type: physicochemical; settings: 0.4 μM in PBS
Description: Protein #21 was expressed and purified as described in Example 1. Thermal stability was evaluated using circular dichroism using a Jasco J-815 CD spectrometer in a nitrogen atmosphere (3 L/min). Protein #21 at 0.4 μM in PBS in 117.100F-QS cuvettes (Hellma, d=1 cm) with in-solution temperature control sensors were measured, heating from 20° C. to 95° C. (below 45° C.: +3° C./min; above 45° C.: +1° C./min recording the signal at 222 nm, a 1 min delay at 95° C. and a subsequent cooling phase (inverted program compared to heating phase). The CD signal was normalized to mean residual ellipticity (MRE) with the unit deg cm2 dmol-1. Additionally, the far-UV CD spectrum was recorded.

HER2 = HER2 (Homo sapiens, UniProt P04626); test: Phospho-proteome mass spectrometry of BT474 cells; assay type: cell-based; set-up: host or cells: BT474; settings: 100 nM, 18 hours
From the text: (§1) Protein #21 was expressed and purified as described in Example 1. […] Cells were then subjected to a phospho-proteome mass-spectrometry analysis as described by Britton, D., et al. (Britton, D., Zen, Y., Quaglia, A., Selzer, S., Mitra, VI., Lössner, C., Jung, S., Bohm, G., Schmid, P., Prefot, P., Hoehle, C., Koncarevic, S., Gee, J., Nicholson, R., Ward, M., Castellano, L., Stebbing, J., Zucht, H. D., Sarker, D., Heaton, N., and Pike, I., 2014. PLOS One 9 (3), e90948).

GXA281 = test: Gastric cancer PDX mouse model GXA281; assay type: in vivo; settings: FIG. 4E; Protein #21 40 mg/kg every three days for 6 times i.v.; Lapatinib 100 mg/kg/day for 21 days
Description: In a similar experiment, Protein #21 was further tested in the gastric cancer PDX mouse model GXA281, well known to the person skilled in the art, in comparison to the standard of care Lapatinib (FIG. 4E). Briefly, tumor implantation and tumor growth monitoring was done as described above. Lapatinib was dosed at 100 mg/kg/day for 21 days daily […]. and Protein #21 at 40 mg/kg every three days for 6 times i.v.

[2] = Storage stability in PBS analysed by SDS-PAGE; assay type: physicochemical; settings: SDS-PAGE after 1 month at 40° C. in glass vials in PBS at 10 mg/ml
Description: “Improved storage stability” in the context of the present invention means the reduction of the amounts of a degradation band, preferably the reduction of the amount of degradation products, as detected by a Coomassie-stained SDS-PAGE occurring after storage at 40° C. for 1 month at 10 mg/ml in PBS, by at least 5%, 10%, 15%, 20%, 25%, 30%, 35%, 40%, 45%, 50%, or 50%. Methods to assess storage stability by SDS-PAGE are well known to the person skilled in the art. Examples of designed ankyrin repeat domains and recombinant binding proteins with improved storage stability properties are given in Examples 2 and 3.
Protein #13-His, Protein #14-His and Protein #15-His were prepared as described in Example 1, and samples were concentrated to 10 mg/ml in PBS. Protein #14-His and Protein #15-His where then stored for 1 month at −80° C. or at 40° C. in glass vials, followed by analysis on SDS 15% PAGE. […] These findings illustrate that Protein #14-His has improved storage stability compared to Proteins #13-His and Protein #15-His.
(§2) A storage stability improvement is also observed, when testing the storage stability of Protein #21 and Protein #22 (recombinant binding proteins consisting of the amino acid sequences corresponding to SEQ ID NOs: 21 and 22, respectively). Protein #21 and Protein #22 are prepared as described in Example 1, samples are concentrated to 10 mg/ml in PBS and stored for 1 month at −80° C. in or at 40° C. in glass vials, followed by analysis on standard size-exclusion chromatography.

mTOR = test: Phospho-proteome mass spectrometry of BT474 cells; assay type: cell-based, human; settings: 100 nM, 18 hours
From the text: as §1

RAF = test: Phospho-proteome mass spectrometry of BT474 cells; assay type: cell-based, human; settings: 100 nM, 18 hours
From the text: as §1

AKT = test: Phospho-proteome mass spectrometry of BT474 cells; assay type: cell-based, human; settings: 100 nM, 18 hours
From the text: as §1

RPS6KB1/S6 Kinase = test: Phospho-proteome mass spectrometry of BT474 cells; assay type: cell-based, human; settings: 100 nM, 18 hours
From the text: as §1

[3] = Storage stability in PBS analysed by size-exclusion chromatography; assay type: physicochemical; settings: 10 mg/ml in PBS
Description: as §2

HER2 S1073/S1078/S1083 phosphorylation (HER2): 0.35 fold change to PBS | HER2 S1174 phosphorylation (HER2): 0.59 fold change to PBS | HER2 T772 phosphorylation (HER2): 10.27 fold change to PBS | HER2 T1172/S1174 phosphorylation (HER2): 0.44 fold change to PBS | HER2 T1240 phosphorylation (HER2): 0.09 fold change to PBS | HER2 Y1139/S1151 phosphorylation (HER2): 0.88 fold change to PBS
B1: Protein #21: SEQ ID NO: 21; HER2 binding domains (SEQ ID NOs: 16, 17) flanked by two serum albumin binding domains (SEQ ID NO: 14), SEQ ID NO: 9 linkers (protein)
chain: GSDLGKKLLEAARAGQDDEVRELLKAGADVNAKDYFSHTPLHLAARNGHLKIVEVLLKAGADVNAKDFAGKTPLHLAANEGHLEIVEVLLKAGADVNAQDIFGKTPADIAADAGHEDIAEVLQKAAGSPTPTPTTPTPTPTTPTPTPTGSDLGIKLLFAAAKGQDDEVRELLKAGADVNAKDFQGVTPLHIAAQSGHLEIVEVLLKAGADVNAKDVTGDTPLHLAAQHGHLEIVEVLLKAGADVNAQDERGWTPADLAADWGHEDIAEVLQKAAGSPTPTPTTPTPTPTTPTPTPTGSDLGKKLLEAARAGQDDEVRELLKAGADVNAKDEYGLTPLYLATAHGHLEIVEVLLKAGADVNAVDAIGFTPLHLAAFIGHLEIAEVLLKAGADVNAQDKFGKTPADIAAGAGNEDIAEVLQKAAGSPTPTPTTPTPTPTTPTPTPTGSDLGKKLLEAARAGQDDEVRELLKAGADVNAKDYFSHTPLHLAARNGHLKIVEVLLKAGADVNAKDFAGKTPLHLAANEGHLEIVEVLLKAGADVNAQDIFGKTPADIAADAGHEDIAEVLQKAA
modifications: Protein comprising four designed ankyrin repeat domains
temperature above which loss of signal at 222 nm is detected [1]: above 78 °C | inhibition of tumor growth (GXA281): strong inhibition of tumor growth compared to Lapatinib | amounts of degradation products compared to Protein #22 [2]: lower amounts of degradation products | mTOR S2448/S2454 phosphorylation (mTOR): 0.79 fold change to PBS | RAF S642 phosphorylation (RAF): 0.81 fold change to PBS | RAF T631/T638/T640/T641/S642 phosphorylation (RAF): 0.48 fold change to PBS | AKT S124 phosphorylation (AKT): 0.99 fold change to PBS | AKT S129 phosphorylation (AKT): 0.93 fold change to PBS | RPS6KB1/S6Kinase S441/T444/S447 phosphorylation (RPS6KB1/S6 Kinase): 0.63 fold change to PBS | RPS6KB1/S6Kinase T444/S447 phosphorylation (RPS6KB1/S6 Kinase): 0.92 fold change to PBS | monomeric species compared to Protein #22 ([3]; 1 month at 40° C.): significantly more monomeric species | elution profiles upon storage at −80° C. ([3]; 1 month at −80° C.): equivalent elution profiles

Source: patent publication US20210130420A1, “RECOMBINANT BINDING PROTEINS TARGETING HER2 AND SERUM ALBUMIN, AND THEIR USES” (Molecular Partners AG, priority 2016, published 2021)
